Experiment: yeast display, Sf9 membrane polyspecificity reagent, FACS + sequencing; frameworks hold sequencing errors
In short: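 Nanobodies came from a synthetic yeast display library in Saccharomyces cerevisiae BJ5465, induced with galactose for 36–48 hours and stained for 1 hour at 4 °C with 10% biotinylated, detergent-solubilized Sf9 membrane reagent. Cells were enriched on streptavidin microbeads and then FACS-sorted, with low and high (top ~1%) gates set on anti-HA fluorescence for expression and streptavidin fluorescence for reagent binding. Each polyreactivity label reflects the gate a clone came from. Genes were amplified by colony PCR, sequenced by MiSeq 2 × 250 and filtered by CDR length.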

QVQLVESGGGLVQAGGSLRLSCAASASIFASNAMGLYRQAPGKERELVAAINSADSTNYADSVKGRFRISRDNAKNTVYLQMNRLKPEDPAVFYCARGLEERYDYWGLGTQVTVSS
polyreactivity (PSR sort gate): low polyreactivity

QVQLVESGGGLVQAGGSLRLSCAASASIFDHYAMGCYRQAPGKARELVAAITWDGTSTYYADSVKGRFTISRDNAKNTVYLQMNSLKPEDTAVYYCADDFYPYSWEEVDYWGQGTQVTVSS
polyreactivity (PSR sort gate): low polyreactivity

QVQLVESGGGLVQAGGSLRLSCAASASIFVNNAKGWYRQATGKERELVAAISSRSSRTIYADSVKGRFTISRDNAKKTVYLQMNSLKPEDTAVYYCAVKKRAPDGDYWGQGTQVTVSS
polyreactivity (PSR sort gate): high polyreactivity

QVQLVESGGGLVQAGGSLRLSCAASASIYFPYTMGWYRQAPGKERELVARISLGGGRTYYADSVKGRFTISRDNAKNTVYLQMNSLKPEDTAVYYCAAVYYYGKWSYGYWIYEYWGQGTQVTVSS
polyreactivity (PSR sort gate): high polyreactivity

QVQLVESGGGLVQAGGSLRLSCAASASTFGGYVMARYRQAPGKERELVAAISGNGASTTYADSVKGRFTISRDNAKNTVYLQMNSLKPEDTAVYDSAALFRKAHSDYDYWGQGTQVTVSS
polyreactivity (PSR sort gate): low polyreactivity

QVQLVESGGGLVQAGGSLRLSCAASCVRNAMGWYRQAPGKERELVAAITSGGNTNYADSVKGRFTISRDNAKNTVYLQMNSLKPEDTAVYYCAKDLLYYTQQGTGVVDYDYWGQGTQVTVSS
polyreactivity (PSR sort gate): low polyreactivity

QVQLVESGGGLVQAGGSLRLSCAASDAMGWYRRAPGKERELVASISNGVSTNYADSVKGRFTISRDNAKNTVYLQMNSLKPEVTAVYYCASDAKTVGRDDLYWYEVEFDYWGQGTQVSVSS
polyreactivity (PSR sort gate): low polyreactivity

QVQLVESGGGLVQAGGSLRLSCAASESIFVRNAMGWYRQAPGKERELVASITYSGSRTYYADSVKGRFTISRDNAKNTVYLQMNRLKPEDTAVYYCAKVRVLVDKWSTFYEYYYWVQGTQVTVSS
polyreactivity (PSR sort gate): low polyreactivity

QVQLVESGGGLVQAGGSLRLSCAASGAIFDWYAMGGDRPAPGKERELVADITWSGDSTYYADSVKGRFTISRDHAKNTVYLKMNSLKPEDTAVFYCAADIWFYTYYEYDYWGQGTQVTVSS
polyreactivity (PSR sort gate): high polyreactivity

QVQLVESGGGLVQAGGSLRLSCAASGAIFFFNAMGWYRQAPGKEREFVAAITSSSGRTYYADSVKGRFTISRDNAKNSVYLQMNSLKPEDTAVYSCDADWAWLQWAYDYWGQGTKVTVSS
polyreactivity (PSR sort gate): low polyreactivity

QVQLVESGGGLVQAGGSLRLSCAASGAIFGGYAMGWYRQAPGKERELVAAISSGGSTNYADSVKGRFTISRDNAKNTVYLQMNSLKPEDTAVYYCAVRGRLPHARQRGYVPKYYYWGQGTQVTVSS
polyreactivity (PSR sort gate): high polyreactivity

QVQLVESGGGLVQAGGSLRLSCAASGCTFPLYLMGWYRQAPGKERELVAAIDWSGGSTYYADSVKGRFTISRDNAKNTVYLQMNSLKPEDTAVYYCAARYTSLRNYGYDYWGQGTQVTVSS
polyreactivity (PSR sort gate): low polyreactivity

QVQLVESGGGLVQAGGSLRLSCAASGDISYIYAMGWYRQAPGKEREMVADISSSVGNTYYADSVKGRFTISRDNAKNTVYLQMNSLKPEDTAVYYCNADYVQPTESGGTYDYWGQGTQVTVSS
polyreactivity (PSR sort gate): low polyreactivity

QVQLVESGGGLVQAGGSLRLSCAASGDIYDAYAMGWYRQAPGKERELVAAISRSGGSTYYSDSVKGRFTISRDNAKNTVYLLMNSLKPEDTAVYYCATRFSRRYVRYDYWGQGTQVTVSS
polyreactivity (PSR sort gate): high polyreactivity

QVQLVESGGGLVQAGGSLRLSCAASGDTFPKYAMGWYRQAPGKERELVAAITKRGGRTYYADSVKGRFTISRDNAKNTVYLQMNRVKPEDTAVYYCAVDLDGPEYSQVHYDYWGQGTQVTVSS
polyreactivity (PSR sort gate): high polyreactivity

QVQLVESGGGLVQAGGSLRLSCAASGFAFSYYAMGWYRQAPGKEREFVASIDWSGGSTYYADSVKGRFTISRDNAKNIVYLQMNSLKPEDTAVYYCAAELDYFPGYDYWGQGTQVTVSS
polyreactivity (PSR sort gate): low polyreactivity

QVQLVESGGGLVQAGGSLRLSCAASGFIFADYAMGWYRQAHGKERELVAAITRSGGRTYYADSVKGRFTISRDTAKNTVYVQMNSLKPDDTAVYYCNAGYAHTYDYWGQGTQVTVSS
polyreactivity (PSR sort gate): high polyreactivity

QVQLVESGGGLVQAGGSLRLSCAASGFIFAEYAMGWYRQAPGKERELVATINIGGSTYYADSVKGRFTISRDNAKNTVYLQMTSLKPEDTAVYYCAAEFWWGDGSQGIYDYDYWGQGTQVSVSS
polyreactivity (PSR sort gate): low polyreactivity

QVQLVESGGGLVQAGGSLRLSCAASGFIFAGYAMGWYRQAPGKERELVAAISGSGGRTYYADSVKGRFTISRDNAKNTVYLQMNSLKPEDTAVYYCNAGKQYRYDWGQGTQVTVSS
polyreactivity (PSR sort gate): high polyreactivity

QVQLVESGGGLVQAGGSLRLSCAASGFIFAPNAMGWYRQAPGKERELVAAISHSGASTFYADSVKGRFTISRDNAKNTVYLQMNSLKPEDTAVYYCAAPPYYSYDYWGQGTQVTVSS
polyreactivity (PSR sort gate): low polyreactivity

QVQLVESGGGLVQAGGSLRLSCAASGFIFAPYAMGWYRQAPGKEREFVASITYGSDSTYYADSVKGRFTISRDNAKNTVYLQMNSLKPEDTAVYYCNREGWHYGPYGYWGQGTQVTVSS
polyreactivity (PSR sort gate): low polyreactivity

QVQLVESGGGLVQAGGSLRLSCAASGFIFARNTMGWYRQAPGKERELVAAITKSGGSTNYADSVKGRFTISRDNAKNTVYLQMNSLKPEDTAVYYCAARTYTLRGVYFSGYNYWGQGTQVTVSS
polyreactivity (PSR sort gate): low polyreactivity

QVQLVESGGGLVQAGGSLRLSCAASGFIFARYAMGWYRQAPGKERELVARITTGDSTYYADSVKGRFTISRDNAKNTVYLQMNSLKPEDTAVYYCAADDNVSVVGLYYWGQGTQVTVSS
polyreactivity (PSR sort gate): low polyreactivity

QVQLVESGGGLVQAGGSLRLSCAASGFIFARYAMGWYRQAPGKERELVATISKSGGRTYYADSVKGRFTISRDNAKNTVYLQMNSLKPEDTAVYYCATRYSTTSPGDDYWGQGTQVTVSS
polyreactivity (PSR sort gate): high polyreactivity

QVQLVESGGGLVQAGGSLRLSCAASGFIFASYAMGWYRQAPVKERELVAAISSCGGRTYYADSVKGRFTISRDNAKNTVNLQMNSLKPEDTAVYYCAADWRFTYDYWGQGTQVTVSS
polyreactivity (PSR sort gate): high polyreactivity

QVQLVESGGGLVQAGGSLRLSCAASGFIFASYAMGWYRQATGKERELVAAITQSGGITYYADSVKGRFTISRDNAKNTVYLQMNSLKPEDTAVYYCNTPLMKRTTRGRERNYWGQGTQVTVSS
polyreactivity (PSR sort gate): low polyreactivity

QVQLVESGGGLVQAGGSLRLSCAASGFIFASYTMGWYRQAPGKERELVASISRRRGSTYYADSVKGRFTISRDIAKNTVYLQMNILKPEDTAVYYCAAERLTIDYDYWGQGTQVTVSS
polyreactivity (PSR sort gate): high polyreactivity

QVQLVESGGGLVQAGGSLRLSCAASGFIFATNAMGWYIQAPGKERELVAAITWSGATTYYADSVKGRFTISRDNAKNTVYLQMNSLKPEDTAVYYCAARRYVYGSPYSTYRYGYWGQGTQVTVSS
polyreactivity (PSR sort gate): high polyreactivity

QVQLVESGGGLVQAGGSLRLSCAASGFIFATNPMGWYRQAPGKERELVAASSTYYADSVKGRFTISRDNAKNTVYLQMNSLKPEDTAVYYCNADRDSYIGFVDWAGEYWGQGTQVTVSS
polyreactivity (PSR sort gate): low polyreactivity

QVQLVESGGGLVQAGGSLRLSCAASGFIFATYAMGWYRQAPGKDRELVAAISRSGGSTYYADSVKGRFTISRDTAKNTVYSQMNCLKPEDTAVYYCAADSDPAPPDYDYWGQGTQVTVSS
polyreactivity (PSR sort gate): high polyreactivity

QVQLVESGGGLVQAGGSLRLSCAASGFIFATYDMGWYRQAPGKERELVAAIDSDGSTNYADSVKGRYTISRDNAKNTVYLQMNSLKPEDTEVYYCAADRFQWGFWWLEYWGQGTQVTVSS
polyreactivity (PSR sort gate): high polyreactivity

QVQLVESGGGLVQAGGSLRLSCAASGFIFATYVMGWYRQAPGKERELVAAISWSGSSTFYADSVKGRFTISRDNAKNTVYLQMNSLKPEDTAVYYCAALGDYVGNDYWGQGTQVTVSS
polyreactivity (PSR sort gate): high polyreactivity

QVQLVESGGGLVQAGGSLRLSCAASGFIFAYNAMGWYRQAPGKERELVAAISIDTSTYYADSVKGRFTISRDNAKNTVYLQMNSLKPEDTAVYYCAADHVPFRLTELYYWGQGTQVTVSS
polyreactivity (PSR sort gate): low polyreactivity

QVQLVESGGGLVQAGGSLRLSCAASGFIFAYYAMGWYRQAPGKERELVAAISSSGGRTYYADSVKGRFTISRDNAKNTVYLQMNSLQPEDTAVYYCAATLSYYVGVRYDYWGQGTQVTVSS
polyreactivity (PSR sort gate): high polyreactivity

QVQLVESGGGLVQAGGSLRLSCAASGFIFAYYAMGWYRQAPGKERELVAAITIDGSTNYADSVKGRFTISRDNAKNTVYVQMNSLKPEDSAVYYCAAAEHPPVWYGYWGQGTQVTVSS
polyreactivity (PSR sort gate): low polyreactivity

QVQLVESGGGLVQAGGSLRLSCAASGFIFAYYAMGWYRQAPGKERELVAGNSGDGSTNYADSVKGRFTISRDNAKNTVYLQMNSLKPEDTAVYYCAAATGVGLEYDYWGQGTQVTVSS
polyreactivity (PSR sort gate): low polyreactivity

QVQLVESGGGLVQAGGSLRLSCAASGFIFAYYAMGWYRQAPGKERELVARITRGGRTYYADSVKGRFTISRDNAKNTVYLQMNSLKPEDTAVYYCATTGSSYFHSFEYDYWGQGTQVTVSS
polyreactivity (PSR sort gate): low polyreactivity

QVQLVESGGGLVQAGGSLRLSCAASGFIFAYYVMGWYRQAPGKERELVAAISRGGGSTYYADSVKGRFTISRDNAKNTVYLQMNSLKPEDTAVYYCATYSHALRYDYWGQGTQVTVSS
polyreactivity (PSR sort gate): high polyreactivity

QVQLVESGGGLVQAGGSLRLSCAASGFIFDAYAMGWYRQAPGKERELVAAISSRGGSTYYADSVKGRFTISRDNAKNTVYLQMNSLKPEDTAVYYCAAPWYQGLDYWGQGTQVTVSS
polyreactivity (PSR sort gate): high polyreactivity

QVQLVESGGGLVQAGGSLRLSCAASGFIFDDNAMGWNRQAHGKERELVAAITSGGGSTYYADSVKGRFTISRDNAKNTVYLQLNSLKPEDTAVYYCNAVPSQHDEFDYWGQGTQVSVSS
polyreactivity (PSR sort gate): low polyreactivity

QVQLVESGGGLVQAGGSLRLSCAASGFIFDFYTIGWYRQAPGKEWELVAAITNGGSTYYADSVKGRFTISRVNAKNTVYLQMNSLKPEDTAVYYCAAYYRSRHHGYDSWGQGTQVTVSS
polyreactivity (PSR sort gate): low polyreactivity

QVQLVESGGGLVQAGGSLRLSCAASGFIFDGYAMGWYRQAPGKERELVAAIDSGGDRTYYADSVKGRFTISRDNAMNTVYLQMNSLKPEDTAVYYCAADSSDPTGYDYWGQGTQVTVSS
polyreactivity (PSR sort gate): low polyreactivity

QVQLVESGGGLVQAGGSLRLSCAASGFIFDGYTMGRYRQAPGKERELVAAISRSGGRTYYADSVKGRFRISRDNAKNTVYLQMNSLKPEDTAVYYCAVRYRLYSQTVASDYGYWGQGTQVTVSS
polyreactivity (PSR sort gate): high polyreactivity

From the nanobody polyreactivity screen of Harvey et al. (2022)
